1 protein from publication PMC10357585 can be followed below.

Substrate in the series: Nc1nc2nc[nH]c2c(=O)[nH]1
The experiment in a line: Initial rate studies of TcHGXPRT, GMP biosynthesis. To be noted: other: variable substrate PRPP (1–78 μM) at fixed Gua levels; pH 8.3; 37.0 °C. In kind it is biochemical, Trypanosoma cruzi.

One may read the Km as the substrate concentration at which the rate is half of its maximum. What is called kcat is the number of substrate molecules converted per active site and unit of time at saturation.

B1: TcHGXPRT (Trypanosoma cruzi strain CL Brener) (protein)
chain: MISSQQAMVHVVSRNAEGVIVVDGKAYPMAEELVATESVIQRSIKAVAKQIADFYRPLSHRDTHGGGGVAPISDENPLIIISVLKGSYIFTADMVRYLGDYGLPHVVDFLRVASYRGTSSTNKMKLLAETQFKALRGKHVLILEDIVDSGKTLRYILDKVQREHQPATLKVCVLADKPGGRRVTMQPDFVCLTVPNKYVIGYGFEVNDRFRCFRHIFTLRPGEARRYPAHL
B1: the Km was 28 ± 3 µM and the turnover number (kcat) is 0.44 ± 0.02 s⁻¹.
